Results on eleven molecules are retold here after patent publication US20250147035A1, “METHODS FOR DETECTION OF POST-TRANSLATIONAL MODIFICATIONS” (Quantum-Si Incorporated, priority 2023, published 2025).

Like-named read-outs stand apart in the source and are kept apart here. Primed or numbered codes have the meaning given here. Where no end group is shown, it is not given here. [ ]: non-standard residue; d: D form. pT = C[C@@H](OP(=O)(O)O)[C@H](N)C(=O)O; pS = N[C@@H](COP(=O)(O)O)C(=O)O; Biotin′ = not defined here

For assay [1], the system named is p[…]-Biotin. The experiment in a line: Octet binding assay of PTM-specific affinity reagent candidates, pTQR peptide. The note with it: fixed concentration of reagent. The method, then:
This Example characterizes an exemplary phosphorylated threonine recognizer for use in methods of the disclosure. Octet binding assays at a fixed concentration of PTM-specific affinity reagent candidates were evaluated for binding with phospho-threonine, phospho-serine containing peptides (p[…]-Biotin; p[…]-Biotin; p[…]-Biotin), and control peptides without modifications ([…]-Biotin; […]-Biotin).
Background: BLI is a label-free optical method that tracks binding on a fibre tip over time.

Assay [2] relates to p[…]-Biotin. Description: Octet binding assay of PTM-specific affinity reagent candidates, pTA peptide. The note with it: fixed concentration of reagent. An excerpt: (§1) This Example characterizes an exemplary phosphorylated threonine recognizer for use in methods of the disclosure.
For assay [3], the target named is T1, TAKLDEESILKQ-Biotin.
T1 peptide: TAKLDEESILKQ-{Biotin′}
The experiment in a line: Octet (BLI), fixed reagent concentration.
Description: (§2) Octet binding assays at a fixed concentration of PTM-specific affinity reagent candidates were evaluated for binding with phospho-threonine, phospho-serine containing peptides (p[sequence]-Biotin; p[sequence]-Biotin; p[sequence]-Biotin), and control peptides without modifications ([sequence]-Biotin; [sequence]-Biotin).

Assay [4] concerns the target T2, pSAKLDEESILKQ-Biotin.
T2 peptide: [pS]AKLDEESILKQ-{Biotin′}
The experiment in a line: Octet (BLI), fixed reagent concentration.
Description: as §2

Assay [5] addresses T3, pTAKLDEESILKQ-Biotin.
T3 peptide: [pT]AKLDEESILKQ-{Biotin′}
Description: Octet (BLI), fixed reagent concentration.
Description: as §2

For assay [6], the target named is T4, p…-Biotin.
T4 sequence (peptide, phosphothreonine at 1; C-terminal Biotin): TAKLDEESILKQ
The experiment in a line: Octet (BLI), fixed reagent concentration.

Assay [7] addresses T5, …-Biotin.
T5 sequence (peptide, C-terminal Biotin): SAKLDEESILKQ
Description: Octet (BLI), fixed reagent concentration.

The target in assay [8] is p…-Biotin. The experiment in a line: Octet (BLI), fixed reagent concentration. The source holds these as a separate data set.
Assay [9] concerns SAKLDEESILKQ-Biotin. Description: Octet binding assay of PTM-specific affinity reagent candidates, SA control peptide. The settings on record: SA = […]-Biotin (control); fixed concentration of reagent.
From the text: as §1

As for PM16: Human/PLK1, SEQ ID NO: 16, the “Octet binding assay response, pTQR” value in assay [1] is listed as 2.1. In addition, the “Octet binding assay response, pTA” value in [2] was determined as 1.7.

B1: PM19 (Human/RBM15) (other)
chain: MAPVASASPKLCLAWQGMLLLKNSNFPSNMHLLQGDLQVASSLLVEGSTGGKVAQLKITQRLRLDQPKLDEVTRRIKVAGPNGYAILLAVPGSSDSRSSSSSAASDTATSTQRPLRNLVSYLKQKQAAGVISLPVGGNKDKENTGVLHAFPPCEFSQQFLDSPAKALAKSEEDYLVMIIVRGFGFQI
In the case of B1, in assay [1], the “Octet binding assay response, pTQR” value was 1.0. Besides, the “Octet binding assay response” value amounted to 0.2 in assay [3]; 0.1 in assay [4]; 0.3 in assay [5]; 1 in assay [6]; 0.1 in assay [7].

B2: PM23 (Human/Scp1) (other)
chain: MAFEELRVQAENARLDMHFKLKEDHEKIQHLQEEYKKEVNDKENQVSLLLIQRTEKENKMKDLTFLLEESRDKVNQLEDKTKLQDENVKELNKKKDHLTSELEDTKMSLQRSMNTQKALEEDLQIATKTIYQLTEEKEAQMEEFNKAKTDHSFMVTELKATTCTLEELLRTEQQRLVKNED
Consider B2, for which, in [1], the “Octet binding assay response, pTQR” value worked out at 0.3. Further, the “Octet binding assay response” value in assay [3] is 0.2; in assay [4] it was 0.1; in [5], 0.2; in [6], 0.3; in assay [7], 0.1.

B3: PM14 (Saccharomyces cerevisiae/RAD53) (other)
chain: MEDQDGKIQGFKIPAHAPIRYTQPKSIEAETREQKLLHSNNTENVKSSKKKGNGRFLTLKPLPDSIIQESLEIQQGVNPFFIGRSEDCNCKIEDNRLSRVHCFIFKKRHAVGKSMYESPAQGLDDIWYCHTGTNVSYLNNNRMIQGTKFLLQDGDEIKIIWDKNNKFVIGFKVEINDTTGLFNEGLGMLQEQRVVLKQTAEEKDLVKKLTQMMAAQRANQPSASSSSMSAKKPPVSDTNNNGNNSVLNDLVESPINANTGNILKRIHSVSLSQSQIDPSKKVKRAKLDQTSKGPENLQFS
B3: the “Octet binding assay response, pTQR” value in [1] is listed as 1.0. Besides, the “Octet binding assay response, pTA” value in assay [2] amounted to 1.1. For the same molecule, the “Octet binding assay response” value was 0.1 in assay [3]; 0.2 in [4]; 1.1 in assay [6] (pTA phosphothreonine peptide); 1 in assay [6] (pTQR phosphothreonine peptide); 0.2 in assay [7].

B4: PM03 (Human/14-3-3 protein eta) (other)
chain: MGDREQLLQRARLAEQAERYDDMASAMKAVTELNEPLSNEDRNLLSVAYKNVVGARRSSWRVISSIEQKTMADGNEKKLEKVKAYREKIEKELETVCNDVLSLLDKFLIKNCNDFQYESKVFYLKMKGDYYRYLAEVASGEKKNSVVEASEAAYKEAFEISKEQMQPTHPIRLGLALNFSVFYYEIQNAPEQACLLAKQAFDDAIAELDTLNEDSYKDSTLIMQLLRDNLTLWTSDQQDEEAGEGN
For the molecule B4, the “Octet binding assay response” value in [3] turned out to be 0.2; in assay [4] it was 0.2; in assay [5], 0.2; in assay [8], 0.4; in [7] it was 0.3.

B5: PM13 (Saccharomyces cerevisiae/FHA1) (other)
chain: MENITQPTQQSTQATQRFLIEKFSQEQIGENIVCRVICTTGQIPIRDLSADISQVLKEKRSIKKVWTFGRNPACDYHLGNISRLSNKHFQILLGEDGNLLLNDISTNGTWLNGQKVEKNSNQLLSQGDEITVGVGVESDILSLVIFINDKFKQCLEQNKVDRIRSNLKNTSKIASPGLTSSTASSMVANKTGIFKDFSIIDEVVGQGAFATVKKAIERTTGKTFAVKIISKRKVIGNMDGVTRELEVLQKLNHPRIVRLKGFYEDTESYYMVMEFVSGG
As for B5, the “Octet binding assay response, pTQR” value in assay [1] is recorded as 3.2. Further, the “Octet binding assay response, pTA” value in assay [2] was found to be 1.8. For the same molecule, in assay [9], the “Octet binding assay response, SA” value is listed as 0.2. Moreover, the “Octet binding assay response” value in [3] worked out at 0.3; in assay [4], 0.3; in [6] (pTA phosphothreonine peptide) it was 1.8; in assay [6] (pTQR phosphothreonine peptide), 3.2; in assay [7] it was 0.2.

B6: PM10 (Human/MCPH1) (other)
chain: MSGRGKKPTRTLVMTSMPSEKQNVVIQVVDKLKGFSIAPDVCETTTHVLSGKPLRTLNVLLGIARGCWVLSYDWVLWSLELGHWISEEPFELSHHFPAAPLCRSECHLSAGPYRGTLFADQPAMFVSPASSPPVAKLCELVHLCGGRVSQVPRQASIVIGPYSGKKKATVKYLSEKWVLDSITQHKVCAPENYLLSQ
With B6, the “Octet binding assay response, pTQR” value in assay [1] was 1.0. For the same molecule, the “Octet binding assay response, SA” value in [9] is recorded as 0.2. The “Octet binding assay response” value in assay [3] was found to be 0.3; in assay [4], 0.3; in assay [5], 0.3; in [6] it was 1; in assay [7], 0.2.

B7: PM02 (Human/14-3-3 protein theta) (other)
chain: MEKTELIQKAKLAEQAERYDDMATCMKAVTEQGAELSNEERNLLSVAYKNVVGGRRSAWRVISSIEQKTDTSDKKLQLIKDYREKVESELRSICTTVLELLDKYLIANATNPESKVFYLKMKGDYFRYLAEVACGDDRKQTIDNSQGAYQEAFDISKKEMQPTHPIRLGLALNFSVFYYEILNNPELACTLAKTAFDEAIAELDTLNEDSYKDSTLIMQLLRDNLTLWTSDSAGEECDAAEGAEN
Regarding B7, the “Octet binding assay response” value in assay [3] worked out at 0.3; in assay [4], 0.3; in assay [5] it was 0.3; in assay [8], 0.5; in assay [7], 0.3.

B8: PM05 (Human/14-3-3 protein beta/alpha) (other)
chain: MTMDKSELVQKAKLAEQAERYDDMAAAMKAVTEQGHELSNEERNLLSVAYKNVVGARRSSWRVISSIEQKTERNEKKQQMGKEYREKIEAELQDICNDVLELLDKYLIPNATQPESKVFYLKMKGDYFRYLSEVASGDNKQTTVSNSQQAYQEAFEISKKEMQPTHPIRLGLALNFSVFYYEILNSPEKACSLAKTAFDEAIAELDTLNEESYKDSTLIMQLLRDNLTLWTSENQGDEGDAGEGEN
As for B8, the “Octet binding assay response” value in assay [3], in assay [4], in assay [5], in [8] and in assay [7] was 0.2 each time.

B9: PM20 (Human/RB15B) (other)
chain: MQLGWNGLLVLKNSCFPTSMHILEGDQGVISSLLKDHTSGSKLTQLKIAQRLRLDQPKLDEVTRRIKQGSPNGYAVLLATQATPSGLGTEGMPTVEPGLQRRLLRNLVSYLKQKQAAGVISLPVGGSKGRDGTGMLYAFPPCDFSQQYLQSALRTLGKLEEEHMVIVIVRDTA
Regarding B9, the “Octet binding assay response, pTQR” value in assay [1] stood at 0.5. Also, the “Octet binding assay response” value came to 0.2 in assay [3]; 0.2 in [4]; 0.3 in [5]; 0.5 in [6]; 0.2 in assay [7].

B10: PM21 (Human/PHF3) (other)
chain: MTFLARLNFIWKGFINMPSVAKFVTKAYPVSGSPEYLTEDLPDSIQVGGRISPQTVWDYVEKIKASGTKEICVVRFTPVTEEDQISYTLLFAYFSSRKRYGVAANNMKQVKDMYLIPLGATDKIPHPLVPFDGPGLELHRPNLLLGLIIRQKL
For the molecule B10, in [1], the “Octet binding assay response, pTQR” value is listed as 0.5. For the same molecule, the “Octet binding assay response, SA” value in [9] came to 0.1. In addition, the “Octet binding assay response” value in assay [3] was found to be 0.2; in assay [4] it was 0.2; in assay [5], 0.3; in assay [6], 0.5; in assay [7], 0.1.
